In the experiment the target is Pro-LC3B, Q9GZQ8. The experiment is described as follows: fluorescence anisotropy. The conditions noted are these: chain shown with the change; FITC-labeled peptide 1 μM; read at the highest Pro-LC3B concentration plotted (about 50 μM); parent: est. 0.071; read off a plot. (Polarisation of emitted light reports the rotation of a fluorescent probe.)

VHDRNANSAVMAGTFNLPSD [BAG6 LIR1 peptide (residues 124-143), P46379-2 Y132A; V135A]: the response was -0.002.
